US20050208041A1 (Bristol-Myers Squibb, published 2005)

T1: purified recombinant IFNAR-1 extracellular fragment (human, UniProt P17181 28-436)
T1 construct: extracellular domain; also called soluble IFNAR-1; soluble IFNAR
T1 sequence (looked up): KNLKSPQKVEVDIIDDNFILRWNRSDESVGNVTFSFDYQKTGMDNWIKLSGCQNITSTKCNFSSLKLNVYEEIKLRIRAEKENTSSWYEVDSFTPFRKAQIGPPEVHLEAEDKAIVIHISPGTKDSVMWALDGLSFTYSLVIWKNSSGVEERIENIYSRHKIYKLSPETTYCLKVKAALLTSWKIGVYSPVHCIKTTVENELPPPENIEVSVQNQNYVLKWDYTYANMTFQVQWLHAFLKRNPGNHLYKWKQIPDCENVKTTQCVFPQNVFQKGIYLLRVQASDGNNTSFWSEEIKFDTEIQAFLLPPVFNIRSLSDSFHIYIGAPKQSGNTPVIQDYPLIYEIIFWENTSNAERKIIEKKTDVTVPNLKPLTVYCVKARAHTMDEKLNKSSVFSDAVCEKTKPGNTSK

B1: M3 heavy chain with K1-CD light chain (antibody, human IgG4, V domains shown)
VH: EVQLLESGGGLVQPGGSLRLSCAFSGFTLSTSGMGIGWVRQAPGKGLEWVAHIWWDDDKYYNPSLKSRFTISRDTSKNTVYLQMNSLRAEDTAVYYCARNYYPYDAWFDYWGQGTLVTVS
VL: DIQMTQSPSSLSASVGDRVTITCSASTSINSNHLNWYQQKPGKAPKLLIYRTSILASGVPSRFSGSGSGTSFTLTISSLQPEDFATYYCQQGSNIPFTFGQGTKVEIKR
notes: also called M3 K1-C/D
B2: M3-AB heavy chain with K1 light chain (antibody, human IgG4, V domains shown)
VH: EVQLLESGGGLVQPGGSLRLSCAFSGFTLSTSGAGIGWVRQAPGKGLEWVAHIWWDDDKYYNPSLKARFTISRDTSKNTVYLQMNSLRAEDTAVYYCARNYYPYDAWFDYWGQGTLVTVS
VL: DIQMTQSPSSLSASVGDRVTITCSASSSINSNHLHWYQQKPGKAPKLLIYRTSILASGVPSRFSGSGSGTSFTLTISSLQPEDFATYYCQQGSNIPFTFGQGTKVEIKR
notes: also called M3-A/B K1
B3: M3 heavy chain with K1-D light chain (antibody, human IgG4, V domains shown)
VH: EVQLLESGGGLVQPGGSLRLSCAFSGFTLSTSGMGIGWVRQAPGKGLEWVAHIWWDDDKYYNPSLKSRFTISRDTSKNTVYLQMNSLRAEDTAVYYCARNYYPYDAWFDYWGQGTLVTVS
VL: DIQMTQSPSSLSASVGDRVTITCSASSSINSNHLNWYQQKPGKAPKLLIYRTSILASGVPSRFSGSGSGTSFTLTISSLQPEDFATYYCQQGSNIPFTFGQGTKVEIKR
notes: also called M3 K1-D
B4: M3-AB heavy chain with K1-CD light chain (antibody, human IgG4, V domains shown)
VH: EVQLLESGGGLVQPGGSLRLSCAFSGFTLSTSGAGIGWVRQAPGKGLEWVAHIWWDDDKYYNPSLKARFTISRDTSKNTVYLQMNSLRAEDTAVYYCARNYYPYDAWFDYWGQGTLVTVS
VL: DIQMTQSPSSLSASVGDRVTITCSASTSINSNHLNWYQQKPGKAPKLLIYRTSILASGVPSRFSGSGSGTSFTLTISSLQPEDFATYYCQQGSNIPFTFGQGTKVEIKR
notes: also called M3-A/B K1-C/D
B5: M3 heavy chain with K1-CDE light chain (antibody, human IgG4, V domains shown)
VH: EVQLLESGGGLVQPGGSLRLSCAFSGFTLSTSGMGIGWVRQAPGKGLEWVAHIWWDDDKYYNPSLKSRFTISRDTSKNTVYLQMNSLRAEDTAVYYCARNYYPYDAWFDYWGQGTLVTVS
VL: DIQMTQSPSSLSASVGDRVTITCSASTSINSNHLNWYQQKPGKAPKLLIYRTSILASGVPSRFSGSGSGTSFTLTISSLQPEDFATYYCQQTSNIPFTFGQGTKVEIKR
notes: also called M3 K1-C/D/E
B6: M3-A heavy chain with K1 light chain (antibody, human IgG4, V domains shown)
VH: EVQLLESGGGLVQPGGSLRLSCAFSGFTLSTSGAGIGWVRQAPGKGLEWVAHIWWDDDKYYNPSLKSRFTISRDTSKNTVYLQMNSLRAEDTAVYYCARNYYPYDAWFDYWGQGTLVTVS
VL: DIQMTQSPSSLSASVGDRVTITCSASSSINSNHLHWYQQKPGKAPKLLIYRTSILASGVPSRFSGSGSGTSFTLTISSLQPEDFATYYCQQGSNIPFTFGQGTKVEIKR
notes: also called M3-A K1
B7: M3 heavy chain with K1-DE light chain (antibody, human IgG4, V domains shown)
VH: EVQLLESGGGLVQPGGSLRLSCAFSGFTLSTSGMGIGWVRQAPGKGLEWVAHIWWDDDKYYNPSLKSRFTISRDTSKNTVYLQMNSLRAEDTAVYYCARNYYPYDAWFDYWGQGTLVTVS
VL: DIQMTQSPSSLSASVGDRVTITCSASSSINSNHLNWYQQKPGKAPKLLIYRTSILASGVPSRFSGSGSGTSFTLTISSLQPEDFATYYCQQTSNIPFTFGQGTKVEIKR
notes: also called M3 K1-D/E
B8: M3 heavy chain with K1-E light chain (antibody, human IgG4, V domains shown)
VH: EVQLLESGGGLVQPGGSLRLSCAFSGFTLSTSGMGIGWVRQAPGKGLEWVAHIWWDDDKYYNPSLKSRFTISRDTSKNTVYLQMNSLRAEDTAVYYCARNYYPYDAWFDYWGQGTLVTVS
VL: DIQMTQSPSSLSASVGDRVTITCSASSSINSNHLHWYQQKPGKAPKLLIYRTSILASGVPSRFSGSGSGTSFTLTISSLQPEDFATYYCQQTSNIPFTFGQGTKVEIKR
notes: also called M3 K1-E
B9: M3-4 (X = L) heavy chain with K1 light chain (antibody, V domains shown)
VH: EVQLLESGGGLVQPGGSLRLSCAFSGFTLSTSGMGIGWVRQAPGKGLEWVAHIWWDDDKYYNPSLKSRFTISRDTSKNTVYLQMNSLRAEDTAVYYCARNYYLYDAWFDYWGQGTLVTVS
VL: DIQMTQSPSSLSASVGDRVTITCSASSSINSNHLHWYQQKPGKAPKLLIYRTSILASGVPSRFSGSGSGTSFTLTISSLQPEDFATYYCQQGSNIPFTFGQGTKVEIK
notes: the position is counted within CDR3, not on the entry; also called M3-4 L
B10: M3-4 (X = G) heavy chain with K1 light chain (antibody, V domains shown)
VH: EVQLLESGGGLVQPGGSLRLSCAFSGFTLSTSGMGIGWVRQAPGKGLEWVAHIWWDDDKYYNPSLKSRFTISRDTSKNTVYLQMNSLRAEDTAVYYCARNYYGYDAWFDYWGQGTLVTVS
VL: DIQMTQSPSSLSASVGDRVTITCSASSSINSNHLHWYQQKPGKAPKLLIYRTSILASGVPSRFSGSGSGTSFTLTISSLQPEDFATYYCQQGSNIPFTFGQGTKVEIK
notes: Position counted within VH CDR3; also called M3-4 G
B11: M3-4 (X = K) heavy chain with K1 light chain (antibody, V domains shown)
VH: EVQLLESGGGLVQPGGSLRLSCAFSGFTLSTSGMGIGWVRQAPGKGLEWVAHIWWDDDKYYNPSLKSRFTISRDTSKNTVYLQMNSLRAEDTAVYYCARNYYKYDAWFDYWGQGTLVTVS
VL: DIQMTQSPSSLSASVGDRVTITCSASSSINSNHLHWYQQKPGKAPKLLIYRTSILASGVPSRFSGSGSGTSFTLTISSLQPEDFATYYCQQGSNIPFTFGQGTKVEIK
notes: Position counted within VH CDR3; also called M3-4 K
B12: M3-4 (X = I) heavy chain with K1 light chain (antibody, V domains shown)
VH: EVQLLESGGGLVQPGGSLRLSCAFSGFTLSTSGMGIGWVRQAPGKGLEWVAHIWWDDDKYYNPSLKSRFTISRDTSKNTVYLQMNSLRAEDTAVYYCARNYYIYDAWFDYWGQGTLVTVS
VL: DIQMTQSPSSLSASVGDRVTITCSASSSINSNHLHWYQQKPGKAPKLLIYRTSILASGVPSRFSGSGSGTSFTLTISSLQPEDFATYYCQQGSNIPFTFGQGTKVEIK
notes: Position counted within VH CDR3; also called M3-4 I
B13: M3-4 (X = C) heavy chain with K1 light chain (antibody, V domains shown)
VH: EVQLLESGGGLVQPGGSLRLSCAFSGFTLSTSGMGIGWVRQAPGKGLEWVAHIWWDDDKYYNPSLKSRFTISRDTSKNTVYLQMNSLRAEDTAVYYCARNYYCYDAWFDYWGQGTLVTVS
VL: DIQMTQSPSSLSASVGDRVTITCSASSSINSNHLHWYQQKPGKAPKLLIYRTSILASGVPSRFSGSGSGTSFTLTISSLQPEDFATYYCQQGSNIPFTFGQGTKVEIK
notes: Position counted within VH CDR3; also called M3-4 C
B14: M3-4 (X = D) heavy chain with K1 light chain (antibody, V domains shown)
VH: EVQLLESGGGLVQPGGSLRLSCAFSGFTLSTSGMGIGWVRQAPGKGLEWVAHIWWDDDKYYNPSLKSRFTISRDTSKNTVYLQMNSLRAEDTAVYYCARNYYDYDAWFDYWGQGTLVTVS
VL: DIQMTQSPSSLSASVGDRVTITCSASSSINSNHLHWYQQKPGKAPKLLIYRTSILASGVPSRFSGSGSGTSFTLTISSLQPEDFATYYCQQGSNIPFTFGQGTKVEIK
notes: Position counted within VH CDR3; also called M3-4 D
B15: M3-4 (X = E) heavy chain with K1 light chain (antibody, V domains shown)
VH: EVQLLESGGGLVQPGGSLRLSCAFSGFTLSTSGMGIGWVRQAPGKGLEWVAHIWWDDDKYYNPSLKSRFTISRDTSKNTVYLQMNSLRAEDTAVYYCARNYYEYDAWFDYWGQGTLVTVS
VL: DIQMTQSPSSLSASVGDRVTITCSASSSINSNHLHWYQQKPGKAPKLLIYRTSILASGVPSRFSGSGSGTSFTLTISSLQPEDFATYYCQQGSNIPFTFGQGTKVEIK
notes: Position counted within VH CDR3; also called M3-4 E
B16: M3-4 (X = H) heavy chain with K1 light chain (antibody, V domains shown)
VH: EVQLLESGGGLVQPGGSLRLSCAFSGFTLSTSGMGIGWVRQAPGKGLEWVAHIWWDDDKYYNPSLKSRFTISRDTSKNTVYLQMNSLRAEDTAVYYCARNYYHYDAWFDYWGQGTLVTVS
VL: DIQMTQSPSSLSASVGDRVTITCSASSSINSNHLHWYQQKPGKAPKLLIYRTSILASGVPSRFSGSGSGTSFTLTISSLQPEDFATYYCQQGSNIPFTFGQGTKVEIK
notes: Position counted within VH CDR3; also called M3-4 H
B17: M3-4 (X = A) heavy chain with K1 light chain (antibody, V domains shown)
VH: EVQLLESGGGLVQPGGSLRLSCAFSGFTLSTSGMGIGWVRQAPGKGLEWVAHIWWDDDKYYNPSLKSRFTISRDTSKNTVYLQMNSLRAEDTAVYYCARNYYAYDAWFDYWGQGTLVTVS
VL: DIQMTQSPSSLSASVGDRVTITCSASSSINSNHLHWYQQKPGKAPKLLIYRTSILASGVPSRFSGSGSGTSFTLTISSLQPEDFATYYCQQGSNIPFTFGQGTKVEIK
notes: Position counted within VH CDR3; also called M3-4 A

Target: T1, purified recombinant IFNAR-1 …
Assay: Biacore, response on IFNAR-1 (flow cell 2) divided by response on anti-human IgG Fc (flow cell 4)
From the text: A series of antibodies were constructed with reduced numbers of potential T-cell epitopes. These included heavy chain variants M3-A and M3-B in which residues were changed in CDR regions and DI M3 in which framework residues were altered. De-immunized light chains were also constructed termed K1-C, K1-D, K1-E and DI K1. The antibodies were expressed and purified before analysis by Biacore. A Biacore chip was used with IFNAR-1 coated on Flow cell 2 at 690 RU and anti-human IgG Fc on flow cell 4 at 5000 RU. Binding of the antibody to IFNAR-1 relative to anti-human IgG Fc was determined by the ratio of response at flow cell 2 divided by flow cell 4 (Fc2/Fc4).

First: B1
Second: B2
The “% activity relative to H3K1” value of the first is higher: 57% for the first, 43% for the second.

Compared with B3, B4 is lower in “% activity relative to H3K1” value: 30% for the first, 23% for the second.

B6 was tested, and the “% activity relative to H3K1” value was 17%.

Compared with B1, B2 is lower in Fc2/Fc4: 0.17 for the first, 0.13 for the second.

First: B3
Second: B4
The Fc2/Fc4 of the first is higher: 0.09 for the first, 0.07 for the second.

First: B5
Second: B6
The Fc2/Fc4 of the first is lower: -0.1 for the first, 0.05 for the second.

First: B7
Second: B8
The Fc2/Fc4 of the first is lower: -0.1 for the first, -0.05 for the second.

Target: T1, purified recombinant IFNAR-1 …
Assay: Biacore, maximal association on IFNAR-1 relative to M3K1
From the text: Pools 4 and 11 were selected for further study and the individual antibodies in each pool were produced and expressed separately. The sequences of these individual antibodies were as shown in SEQ ID NO:12 of FIG. 1F and SEQ ID NO: 13 of FIG. 1G. The data is presented as maximal association relative to M3K1. […]

Going from B9 to B10, the “% activity relative to M3K1” value falls from 126% to 114%.

Compared with B11, B12 is higher in “% activity relative to M3K1” value: 86% for the first, 106% for the second.

Going from B13 to B14, the “% activity relative to M3K1” value falls from 123% to 100%.

Going from B15 to B16, the “% activity relative to M3K1” value falls from 128% to 79%.

For B17, the “% activity relative to M3K1” value was 107%.
